# Experimental data: patent publication US20240026407A1, “MODIFICATION OF SAPONINS” (GLAXOSMITHKLINE BIOLOGICALS SA, priority 2020, published 2024)
# B1: 5 (protein, listed as Actinobacteria bacterium)
# chain: MSELVENLILRLTLEEKATLTSGTDMWNAHGIDRLGIPGLKVSDGPVGVRGERWVGTTSACTPCGTALGATWNMELIEQVGVVLGEEAKSKSVDIVLAPTVNLHRNPLAGRNFECFSEDPFLTGLAATAIINGIQSAGVGACVKHFVANDSEYQRHTISSQVSERVLRELYLLPFEMVIRDTDVVAVMSGYNRLNGTYCAEHDWLLNQILKQEWGFDGLVMSDWWGTMSSASAAGGLDLEMPGPAKYLGPQLAQMVADGTLDATALDEMARRILHVSERLGLLAHSSPATPSRAAERSEDLPTHQAILRSAAEQAVVLLTNRLIEGQTVLPLDVSSLRHVAVIGPSADTAAVLGGGSAAVNPHYAVSILQGLQEALPSHVKVTHEIGVHASHSAPPIDSRCLRSAVQPDKPGLDVEYFANREFAGTPACVEHAAQPRLVWMGSEAASGVATNNLSVRVSGTFIARSTGTHTFALVTGGTGGRVLLDGESILDNYTGQESGTAFFGLGSSEILAEVYLEQGEERGIIGEFTGYEGMDVAAFLIGHREPLAADGIERAAKAAAEAEVAIVVVGLDQDSETEGEDRKTISLPGEQDALLRAVIAANPRTVVLVNAGSVVDLAATEGAAAIAQTWYLGQETGNAVAAVLTGSVDPSGRLPTTFGKKVQDWSSHLNYPGEFGEVLYGEELFMGYRGFDQQQIEPAFCFGHGLSYTSFDWSGATLSTSSLSQTELLDGAQFSLSAEVTNTGDTSGYEVLQCYVQRDQSQSGRPEQELCGFVKVHLSPGQTATVNIPLNFRSCAVWDQPSRSWLVHPGEIKFRLSSSSRDTRSTAAFQVTT
# B2: 101 (protein, listed as Meira miltonrushii)
# chain: MSAPIDPQALLAQLTLEEKIQLTAGADLWRTVAIERLKIPYIKLTDGPIGARGGGDFHDSTPSTLFPSPSCLGSTWDTKLAYEMGKQIALDGIEKQCHVILGPTINGQRDPRAGRFFESYSEDPTLMGFLASHWVQGVQSCGVGATMKHFVANEAEYDRRNNSSDVSIEALREVYLEPFRIIMADMQRKASAHDDPFKFQPACVMTAYNRVNGVSSSENDAMITDILRKEWGFDGLVMSDWFAMHANAFNATDLEMPGPTIFRTIEKTIDTIKKGDEEGKKMAKDLDRCVLKVLELVKKVHKLGYQKSVADEVEKSVPIEQVGPAIRKIGAEGAVLLKNDNDILPIIPKKDLKILCVGAPWIEAVQSGGGSANLTPQKVMQPLSTFKDALKNEKGGQDVTVNHHNGIGIHNFVKPLEQSIKLDFLTGRQPGKGEVVASTTGQKATLSTMLPKPKEVPWNDYWVRGSLDLEPVKKDCQLRFGLLGLGTITAYLTIDGDKSKQSIWNFDGETDLFESIVNPLRNWQENVITVKAGQKIQIEAHFVPRLVGKEHGDAKYGGFQIGMEEVDDEDALIAEAVQQAKEADLTVIMTAVGKDWESEGFDRPTIFLPRRQDDLVNQVTKACPGKTVILNLTGSVVEMPWRNDATGIVQCWYGGQEGAVSLSDILLGRGDAPASGRLAHVWPARIEDHPSGVDEAYFPGTHLPNDKEGPHTEYVEGRLVGYKYYNKNKNANQPAFHFGEGLGGYTTFATEGPVVKGSTKINKSSLPLSLTVKSTNKGKRSGKEVAQIYLRPHVPLSDAKDEPIQRLAGFAILRPAPGQSEEAEIQLYQETFSHWDEKSRSWQVKQGDYDLVLARSARYGEELGKATITIDQSWSWTGTGVN
# B3: 207 (protein, listed as Bifidobacterium dentium)
# chain: MSESTYPEVNDLTLEEKASLTSGGDAWHLQGVEAKGIPGYMITDGPHGLRKSLASSTGETDLNDSVPATCFPPAAGLSSSWNPELIHQVGEAMAEECIQEKVAVILGPGVNIKRNPLGGRCFEYWSEDPYLAGHEAIGIVAGVQSKGIGTSLKHFAANNQETDRLRVSANISQRALREIYFPAFEHIVKEAQPWTIMCSYNRINGVHSAQNHWLLTDVLRDEWGFEGIVMSDWGADHDRVASLNAGLNLEMPPSYTDDQIVYAARDGRIQPEQLDRMAQGMIDLVNKTRAAMSVEGYRFDVDAHDEVAHQAAVESMVLLKNDDAILPVASDAKVAVIGEFARTPRYQGGGSSHITPTKMTSFLDTLAARGVDAKFAPGFTLDLEPADAAMAADAVEVAKGADVVLMFLGLPEAAESEGFDRETLDIPAKQVELLEAVAAENKNIVVVLSNGSVVSVAPWADNAKGILESWLLGQAGGPALADVIFGNVSPSGKLAQTVPMDINDDPSMINWPGEEGHVDYGEGVFVGYRYYDTYDKAVDYPFGYGLSYATFEVSDVKVAKTGANTASVSAVVKNTSDVDAAETVQVYVAPGKSAVARPIHELKGFRKVFLKAGESAEVSFDLDERAFAYWSEKFDDWHVESGEYAIEVGTSSRDIAGTGVVELDGDGKAEPLTEWSTFGEWSDDPVGSKIVASVYAEGEAGNLPKMPDNDMMRMFLRSMPINSMPMLMSEGGKKITAFMLDEYAKVTE
# B4: 169 (protein, listed as Bifiguratus adelaidae)
# chain: MASSRVTELLANLTLEEKVYLLSGSDNWRTFPVPRLGIPAVKVTDGPIGARGDSFNTGQNAACFPAPIAMASTWDTDLLLKVGSALGEEAKSKAAQVLLAPTINMHRSPLNGRNFECYSEDPFLTGKMATAFVSGLQSQGVAAAVKHFACNDSEFERDSISSEITERPFREIYLRPFEMVVRDADPWCIMTSYNKINGVFASENPKLLKEILRNEWNWKGMVMSDWFGVKSTVPSVLNGNDLEMPGPPAWRGEKLLAAIKQGELKEEDLNESVQRVLSFVERVGKFEDPEERPETYLAKPEITELIRNVSADSIILVKNEQSLPLNKDALKSVAIIGPNAKTAVTMGGGSSKVQAPHEVTPYEGIAAALGEDVDIRHSVGAYTHKLIPQLDDRLQTPDGELGYIMDVYESKNFGETPTDSKVLNNTRVIIHDAGFKDVDFRSFSAKVRARYTAKHTGPHTFGIASVGLSKLYVDGKLVIDNWTSQVRGDIFFGFGSREEKAQYDMIEGQTYEILIDYMTGHELMAMLRFGLLEPLASDVVEQAVKVAEGTDVAVVVVGLNNEWETEGYDKTELELPGGQNELIEAVANVNKNTIVVVQCGSPVVMPWIDKVSGVIVAWYGGQETGHSIADVLFGKVNPSGRLTQTFPKRLEDNPAFDNYPGENGKVIYGEGLFIGYRYYQRRKVDVFLPFGFGLSYTTFDYGNIKLDNSELDPQAHITVSVDVTNTGSIAGKEVVQVYVHDNHPRLSRPLAELKGFSKVELAPGETRTVQITLDKHAVAFYDDKEAVWVAEAGEFELHIGSSSADIRGKVPFTVTKSLSWTF
# B5: 247 (protein, listed as Arthrobotrys oligospora)
# chain: MDATTLKEIEETLAQLTLEEKISLLAGKDFWRTVPLPEKQIPSIKVSDGPSGARGDTFSGGQKAAFFPSGILMGATFNPELAYETGELLSEEVRAKSASVLLAPTACCHRSPLGGRNFESYSEDPLLSGKMASGYIRGVQSRGIAATMKHFVANEQETWRLYVDETIDETTLREIYLKPFEIAMREGQPWAIMTAYNIINGVHCDSHPLTLKQVLRGEWNYEGLVMSDWFGCNSMVESLLAGLDLEMPGPARKRPIKEFVEAAEKDESVRKAIDDSARRILTLIAKVGKWKDMTPEAPEYSRNDPETGKLIRRAGGEGTVLLKNEGKTLPLQPGSLKKVAFIGPNAKATVAGGGGSANLEPNYLTQPYETFVTAIKEINGDIEVPWVQGCIIDRWVPNIDVEGGFCRVGGPDSEAGLFLEWFRGYEATGEPVATTVFKTSNAFLWDSRPTSISPSEEFSVRFSGQISVPEDGKYNISLSTITASKLYLNGELLIDNWDFKERGNLMMNVGSEEVVKTIELKKGEWYPILVHNSSIWPKDSPRDPPMEEIGALGIRLGVAPVYDNAVLIAEAADAVKDADAVVIVVGLNNEWESESYDRSDTKLPNNQDDLIEEIAKVNQNVIVVNQSGAPVDMPWAENSNVKAIVQAWYAGQEAGHVIADVLLGKQNPSGKLPLTFPIKVQDNPSYLYFPGRDQKVEYTEKLMVGYRYYDTENVQTRFPFGYGLSYSTFSIGEPSLSTAELTEGQTFTANVDVSNTSNVAGAEVVQLYVKRPASTSSIKRPVKELKGFKKVHLGTGETATANITVDDKSLGIWSTEAGKWVVEAGDYEVLIGTSSVQDELKPAGKITVKAAWSWI
# Assay: Experiment 4-1: screening of glucosidases for deglycosylation with purified QS-18 (0.04 mg/ml) at pH 7.5 and room temperature
# Type: biochemical, Quillaja saponaria
# Conditions: pH 7.5, room temperature, 20 h, clarified E. coli lysate, QS-18 2150 to QS-21 1988 by LCMS/MS
# Summary of the method: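 Deglycosylation measured by LC-MS/MS as % conversion after 20 h room-temperature incubation of QS-18 phenyl fraction (0.04 mg/ml final) with polymyxin B/lysozyme lysates, pH 7.5 phosphate, of E. coli BL21(DE3) expressing each enzyme; MeCN quench. Positives exceeded negative control by >3 S.D.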
row,Molecule,Expt 4-1 % conv [%]
1,B1,70.8
2,B2,28.2
3,B3,27.4
4,B4,19.8
5,B5,18.0

# Assay: Experiment 4-2: screening of glucosidases for deglycosylation with purified QS-18 (1 mg/ml) at pH 6 and 30 deg C
# Type: biochemical, Quillaja saponaria
# Conditions: pH 6, 30 degC, 18 hrs, clarified lysate, LCMS/MS
# Summary of the method: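 Enzyme activity derived from LC-MS/MS analysis after MeCN quench. Substrate QS-18 (1 mg/ml final) was exposed overnight (18 h, 30 °C, pH 6 phosphate buffer) to clarified lysates containing candidate glucosidases.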
row,Molecule,Expt 4-2 % conv [%]
1,B1,16.6
2,B2,1.0
3,B3,4.4
4,B4,2.1
5,B5,2.0

# Assay: Experiment 4-3: screening of glucosidases for deglycosylation with QS-18 in crude bark extract (1 in 2000 dilution) at pH 7 and 30 deg C
# Type: biochemical, Quillaja saponaria
# Conditions: CBE 1 in 2000 dilution, pH 7, 30 degC, 1 h; % conversion of QS-18 by LCMS/MS
row,Molecule,Expt 4-3 % conv [%]
1,B1,1.4
2,B2,1.8
3,B3,0.2
4,B4,2.4
5,B5,2.7

# Assay: Experiment 4-4: screening of glucosidases for deglycosylation of QS-18 in crude bark extract (1 in 20 dilution) to QS-21
# Type: biochemical, Quillaja saponaria
# Conditions: CBE 1 in 20 dilution, pH 6, 25 degC, 18 hours; % conversion of Middle Peak by UV HPLC
# Summary of the method: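 Clarified glucosidase lysates were incubated with pH 6 crude bark extract (1 in 20) in potassium phosphate buffer pH 6 for 18 h at 25 °C with shaking, then quenched with MeCN. UV HPLC with MS/MS-supported peak identity; activity is % conversion of the extract's Middle Peak (QS-18 family) toward the QS-21 peak.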
row,Molecule,Expt 4-4 % conv [%]
1,B1,<3
2,B2,<3
3,B3,<3
4,B4,<3
5,B5,<3
